Data reported in article PMC6668441, “Comparative Study of Subcutaneous and Orthotopic Mouse Models of Prostate Cancer: Vascular Perfusion, Vasculature Density, Hypoxic Burden and BB2r-Targeting Efficacy” (Scientific Reports, 2019).

Experiments:
physchem = type: physicochemical; settings: pH 7.4
Method: (§1) Peptide synthesis was performed using an automated solid-phase peptide synthesizer employing traditional Fmoc chemistry and using a Rink Amide resin. Briefly, the resin (100 µmol of the resin substituted peptide anchors) was deprotected using piperidine, resulting in the formation of a primary amine from which the C-terminus of the growing peptide was anchored.
The Fmoc protected amino acids (300 µmol) with appropriate orthogonal protection were activated with HBTU and sequentially added to the resin. The resulting peptide was orthogonally deprotected and cleaved from the resin using a cocktail consisting of triisopropyl silane (0.1 mL), water (0.1 mL), 3,6-dioxa-1,8-octanedithiol (0.1 mL), trifluoroacetic acid (4.625 mL) and thioanisole (0.075 mL), respectively. The cleaved peptide was subsequently precipitated and washed using cold (0 °C) methyl-tert-butyl ether (10 mL×3). The crude conjugate was dried by a centrivap concentrator and weighed. ES-MS was used to determine the molecular mass of the prepared peptides. All conjugate were peak purified to • 95% purity and quantified by RP-HPLC prior to in vitro/in vivo investigations.
HPLC Purification and Analysis Methodology […]
(§2) The partition coefficient was determined for the 177Lu-labeled conjugate. […] Aliquots of 100 µL were taken from each layer and the radioactivity of each was quantified by a Ȗ-counter. […]

[1] = Radiochemical stability in stabilizing buffers (RP-HPLC); type: physicochemical; settings: PBS, 0.37 MBq in 1 mL, 4 °C, 72 h
Method: Briefly, 0.37 MBq of radiolabeled compounds were incubated with 1 mL of: A) PBS; B) ascorbic acid in 0.9% sodium chloride solution (40 mg/ml); and C) Selenomethionine (0.2 mg/ml) and ascorbic acid (40 mg/ml) in 0.9% sodium chloride solution at 4 °C for 24, 48 and 72 h. The stability of the radioconjugate at each time point was calculated based on the integration of the RP-HPLC chromatograms.
as §1
The Fmoc protected amino acids (300 µmol) with appropriate orthogonal protection were activated with HBTU and sequentially added to the resin. […] All conjugate were peak purified to • 95% purity and quantified by RP-HPLC prior to in vitro/in vivo investigations. […]
as §2

[2] = Biodistribution, BB2r-targeted uptake, subcutaneous PC-3 xenograft model; settings: female, NOD SCID, mouse, iv, total radioactivity, 1 h 5 min p.i., mean ± SD; for dose excreted at 65 min: urine and faeces, excretion (urine and fecal material)

**Q.** For `CSCC[C@H](NC(=O)[C@H](CC(C)C)NC(=O)[C@H](Cc1c[nH]cn1)NC(=O)CNC(=O)[C@@H](NC(=O)[C@H](C)NC(=O)[C@H](Cc1c[nH]c2ccccc12)NC(=O)[C@H](CCC(N)=O)NC(=O)CCOCCOCCOCCOCCNC(=O)[C@@H](CO)NC(=O)[C@@H](CO)NC(=O)[C@@H](CO)NC(=O)[C@@H](CO)NC(=O)[C@@H](CO)NC(=O)CN1CCN(CC(=O)O)CCN(CC(=O)O)CCN(CC(=O)O)CC1)C(C)C)C(N)=O` [[^177Lu]Lu-DOTA-SP714, metal not drawn], which logD (physchem) is on record?
**A.** -2.2 ± 0.1

**Q.** And the radiolytic degradation [1]?
**A.** 39.9%

**Q.** What about the tissue uptake at 65 min ([2]; blood, 10 uCi, blood uptake, tumor volume 300-700 mm^3, 10 µCi i.v.) of the same molecule?
**A.** 0.78 ± 0.81 %ID/g

**Q.** What about the tissue uptake at 65 min ([2]; blood, 10 uCi, blood uptake, tumor volume <300 mm^3, 10 µCi i.v.) of the same molecule?
**A.** 0.49 ± 0.4 %ID/g

**Q.** And the tissue uptake at 65 min ([2]; blood, 10 uCi, blood uptake, tumor volume >700 mm^3, 10 µCi i.v.)?
**A.** 2.27 ± 0.6 %ID/g

**Q.** What about the tissue uptake at 65 min ([2]; bone, 10 uCi, bone uptake, tumor volume 300-700 mm^3, 10 µCi i.v.) of the same molecule?
**A.** 0.26 ± 0.19 %ID/g

**Q.** What about the tissue uptake at 65 min ([2]; bone, 10 uCi, bone uptake, tumor volume <300 mm^3, 10 µCi i.v.) of the same molecule?
**A.** 0.2 ± 0.12 %ID/g

**Q.** And the tissue uptake at 65 min ([2]; bone, 10 uCi, bone uptake, tumor volume >700 mm^3, 10 µCi i.v.)?
**A.** 0.67 ± 0.07 %ID/g

**Q.** What about the tissue uptake at 65 min ([2]; brain, 10 uCi, brain uptake, tumor volume 300-700 mm^3, 10 µCi i.v.) of the same molecule?
**A.** 0.03 ± 0.01 %ID/g

**Q.** What about the tissue uptake at 65 min ([2]; brain, 10 uCi, brain uptake, tumor volume <300 mm^3, 10 µCi i.v.) of the same molecule?
**A.** 0.03 ± 0.02 %ID/g

**Q.** What about the tissue uptake at 65 min ([2]; brain, 10 uCi, brain uptake, tumor volume >700 mm^3, 10 µCi i.v.) of the same molecule?
**A.** 0.09 ± 0.05 %ID/g

**Q.** What about the tissue uptake at 65 min ([2]; heart, 10 uCi (370 kBq), heart uptake, tumor volume 300-700 mm^3, 10 µCi i.v.) of the same molecule?
**A.** 0.16 ± 0.03 %ID/g

**Q.** And the tissue uptake at 65 min ([2]; heart, 10 uCi (370 kBq), heart uptake, tumor volume >700 mm^3, 10 µCi i.v.)?
**A.** 0.68 ± 0.48 %ID/g

**Q.** What about the tissue uptake at 65 min ([2]; heart, 10 uCi, heart uptake, tumor volume <300 mm^3, 10 µCi i.v.) of the same molecule?
**A.** 0.16 ± 0.05 %ID/g

**Q.** And the tissue uptake at 65 min ([2]; kidney, 10 uCi, kidney uptake, tumor volume 300-700 mm^3, 10 µCi i.v.)?
**A.** 2.59 ± 1.02 %ID/g

**Q.** What about the tissue uptake at 65 min ([2]; kidney, 10 uCi, kidney uptake, tumor volume <300 mm^3, 10 µCi i.v.) of the same molecule?
**A.** 2.75 ± 1.29 %ID/g

**Q.** And the tissue uptake at 65 min ([2]; kidney, 10 uCi, kidney uptake, tumor volume >700 mm^3, 10 µCi i.v.)?
**A.** 6.64 ± 2.83 %ID/g

**Q.** And the tissue uptake at 65 min ([2]; large intestine, 10 uCi, large intestine uptake, tumor volume 300-700 mm^3, 10 µCi i.v.)?
**A.** 2.63 ± 2.12 %ID/g

**Q.** And the tissue uptake at 65 min ([2]; large intestine, 10 uCi, large intestine uptake, tumor volume <300 mm^3, 10 µCi i.v.)?
**A.** 1.38 ± 0.75 %ID/g

**Q.** And the tissue uptake at 65 min ([2]; large intestine, 10 uCi, large intestine uptake, tumor volume >700 mm^3, 10 µCi i.v.)?
**A.** 3.75 ± 2.89 %ID/g

**Q.** What about the tissue uptake at 65 min ([2]; liver, 10 uCi, liver uptake, tumor volume 300-700 mm^3, 10 µCi i.v.) of the same molecule?
**A.** 0.31 ± 0.06 %ID/g

**Q.** What about the tissue uptake at 65 min ([2]; liver, 10 uCi, liver uptake, tumor volume <300 mm^3, 10 µCi i.v.) of the same molecule?
**A.** 0.29 ± 0.12 %ID/g

**Q.** And the tissue uptake at 65 min ([2]; liver, 10 uCi, liver uptake, tumor volume >700 mm^3, 10 µCi i.v.)?
**A.** 0.9 ± 0.49 %ID/g

**Q.** What about the tissue uptake at 65 min ([2]; lung, 10 uCi (370 kBq), lung uptake, tumor volume 300-700 mm^3, 10 µCi i.v.) of the same molecule?
**A.** 0.64 ± 0.39 %ID/g

**Q.** What about the tissue uptake at 65 min ([2]; lung, 10 uCi (370 kBq), lung uptake, tumor volume <300 mm^3, 10 µCi i.v.) of the same molecule?
**A.** 1.08 ± 1.55 %ID/g

**Q.** What about the tissue uptake at 65 min ([2]; lung, 10 uCi, lung uptake, tumor volume >700 mm^3, 10 µCi i.v.) of the same molecule?
**A.** 1.39 ± 0.67 %ID/g

**Q.** What about the tissue uptake at 65 min ([2]; muscle, 10 uCi, muscle uptake, tumor volume 300-700 mm^3, 10 µCi i.v.) of the same molecule?
**A.** 0.15 ± 0.07 %ID/g

**Q.** And the tissue uptake at 65 min ([2]; muscle, 10 uCi, muscle uptake, tumor volume <300 mm^3, 10 µCi i.v.)?
**A.** 0.17 ± 0.12 %ID/g

**Q.** And the tissue uptake at 65 min ([2]; muscle, 10 uCi, muscle uptake, tumor volume >700 mm^3, 10 µCi i.v.)?
**A.** 0.46 ± 0.24 %ID/g

**Q.** What about the tissue uptake at 65 min ([2]; pancreas, 10 uCi, pancreas uptake, tumor volume 300-700 mm^3, 10 µCi i.v.) of the same molecule?
**A.** 23.8 ± 8.43 %ID/g

**Q.** And the tissue uptake at 65 min ([2]; pancreas, 10 uCi, pancreas uptake, tumor volume <300 mm^3, 10 µCi i.v.)?
**A.** 19.4 ± 13 %ID/g

**Q.** And the tissue uptake at 65 min ([2]; pancreas, 10 uCi, pancreas uptake, tumor volume >700 mm^3, 10 µCi i.v.)?
**A.** 22.6 ± 7.83 %ID/g

**Q.** And the tissue uptake at 65 min ([2]; small intestine, 10 uCi, small intestine uptake, tumor volume 300-700 mm^3, 10 µCi i.v.)?
**A.** 2.82 ± 1.14 %ID/g

**Q.** And the tissue uptake at 65 min ([2]; small intestine, 10 uCi, small intestine uptake, tumor volume <300 mm^3, 10 µCi i.v.)?
**A.** 2.53 ± 1.39 %ID/g

**Q.** And the tissue uptake at 65 min ([2]; small intestine, 10 uCi, small intestine uptake, tumor volume >700 mm^3, 10 µCi i.v.)?
**A.** 4.21 ± 1.92 %ID/g

**Q.** What about the tissue uptake at 65 min ([2]; spleen, 10 uCi, spleen uptake, tumor volume 300-700 mm^3, 10 µCi i.v.) of the same molecule?
**A.** 2.53 ± 1.31 %ID/g

**Q.** What about the tissue uptake at 65 min ([2]; spleen, 10 uCi, spleen uptake, tumor volume <300 mm^3, 10 µCi i.v.) of the same molecule?
**A.** 1.46 ± 1.32 %ID/g

**Q.** What about the tissue uptake at 65 min ([2]; spleen, 10 uCi, spleen uptake, tumor volume >700 mm^3, 10 µCi i.v.) of the same molecule?
**A.** 3.02 ± 0.63 %ID/g

**Q.** And the tissue uptake at 65 min ([2]; stomach, 10 uCi, stomach uptake, tumor volume 300-700 mm^3, 10 µCi i.v.)?
**A.** 1.68 ± 0.85 %ID/g

**Q.** And the tissue uptake at 65 min ([2]; stomach, 10 uCi, stomach uptake, tumor volume <300 mm^3, 10 µCi i.v.)?
**A.** 0.94 ± 0.53 %ID/g

**Q.** And the tissue uptake at 65 min ([2]; stomach, 10 uCi, stomach uptake, tumor volume >700 mm^3, 10 µCi i.v.)?
**A.** 4.89 ± 3.52 %ID/g

**Q.** What about the tissue uptake at 65 min ([2]; tumor, 10 uCi, tumor uptake, tumor volume 300-700 mm^3, 10 µCi i.v.) of the same molecule?
**A.** 5.35 ± 1.75 %ID/g

**Q.** And the tissue uptake at 65 min ([2]; tumor, 10 uCi, tumor uptake, tumor volume <300 mm^3, 10 µCi i.v.)?
**A.** 4.16 ± 1.74 %ID/g

**Q.** And the tissue uptake at 65 min ([2]; tumor, 10 uCi, tumor uptake, tumor volume >700 mm^3, 10 µCi i.v.)?
**A.** 9.44 ± 3.66 %ID/g

**Q.** And the dose excreted at 65 min ([2]; 10 uCi, tumor volume 300-700 mm^3, 10 µCi i.v.)?
**A.** 73.2 ± 7%

**Q.** And the dose excreted at 65 min ([2]; 10 uCi, tumor volume <300 mm^3, 10 µCi i.v.)?
**A.** 68.5 ± 23.4%

**Q.** What about the dose excreted at 65 min ([2]; 10 uCi, tumor volume >700 mm^3, 10 µCi i.v.) of the same molecule?
**A.** 59 ± 12.4%
